Experimental data published in patent publication US20220175839.

Columns and labels:
Assay in all cases: cell_activity
[1] = system: TALEN 103054 (synthetic); details: pair with 103053; K562, 400 ng
[2] = system: TALEN 103070 (synthetic); details: pair with 103069; K562, 400 ng
[3] = system: TALEN 103081 (synthetic); details: pair with 103082; K562, 400 ng
[4] = system: TALEN 103084 (synthetic); details: pair with 103083; K562, 400 ng
[5] = system: TALEN 103076 (synthetic); details: pair with 103075; K562, 400 ng
[6] = system: TALEN 103065 (synthetic); details: pair with 103066; K562, 400 ng
[7] = system: TALEN 103063 (synthetic); details: pair with 103064; K562, 400 ng
[8] = system: TALEN 103079 (synthetic); details: pair with 103080; K562, 400 ng
[9] = system: TALEN 103067 (synthetic); details: pair with 103068; K562, 400 ng
[10] = system: TALEN 103082 (synthetic); details: pair with 103081; K562, 400 ng
[11] = system: TALEN 103061 (synthetic); details: pair with 103062; K562, 400 ng
[12] = system: TALEN 103068 (synthetic); details: pair with 103067; K562, 400 ng
[13] = system: TALEN 103077 (synthetic); details: pair with 103078; K562, 400 ng
[14] = system: TALEN 103052 (synthetic); details: pair with 103051; K562, 400 ng
[15] = system: TALEN 103083 (synthetic); details: pair with 103084; K562, 400 ng
[16] = system: TALEN 103064 (synthetic); details: pair with 103063; K562, 400 ng
[17] = system: TALEN 103066 (synthetic); details: pair with 103065; K562, 400 ng
[18] = system: TALEN 103071 (synthetic); details: pair with 103072; K562, 400 ng
[19] = system: TALEN 103062 (synthetic); details: pair with 103061; K562, 400 ng
[20] = system: TALEN 103058 (synthetic); details: pair with 103057; K562, 400 ng
[21] = system: TALEN 103085 (synthetic); details: pair with 103086; K562, 400 ng
[22] = system: TALEN 103050 (synthetic); details: pair with 103049; K562, 400 ng
[23] = system: TALEN 103072 (synthetic); details: pair with 103071; K562, 400 ng
[24] = system: TALEN 103087 (synthetic); details: pair with 103088; K562, 400 ng
[25] = system: TALEN 103056 (synthetic); details: pair with 103055; K562, 400 ng
[26] = system: TALEN 103049 (synthetic); details: pair with 103050; K562, 400 ng
[27] = system: TALEN 103073 (synthetic); details: pair with 103074; K562, 400 ng
[28] = system: TALEN 103053 (synthetic); details: pair with 103054; K562, 400 ng
[29] = system: TALEN 103055 (synthetic); details: pair with 103056; K562, 400 ng
[30] = system: TALEN 103057 (synthetic); details: pair with 103058; K562, 400 ng
[31] = system: TALEN 103069 (synthetic); details: pair with 103070; K562, 400 ng
[32] = system: SBS55254 ZFN (TCRA) (synthetic); details: pair with 55248; T cells, TRAC 180, day 10
[33] = system: TALEN 103074 (synthetic); details: pair with 103073; K562, 400 ng
[34] = system: TALEN 103075 (synthetic); details: pair with 103076; K562, 400 ng
[35] = system: TALEN 103051 (synthetic); details: pair with 103052; K562, 400 ng
[36] = system: TALEN 103086 (synthetic); details: pair with 103085; K562, 400 ng

ATAGCCTCCAGGCCAGAAAGA (double strand) [TALEN 103054 site]
activity [1]: 32.4 % indel

TTTCCATTCTCTGCTGGATGA (double strand) [TALEN 103070 site]
activity [2]: 27.9 % indel

GTCTGGGTTTCATCCATCCGA (double strand) [TALEN 103081 site]
activity [3]: 27.5 % indel

TTCTCTCTCCATTCTTCAGTA (double strand) [TALEN 103084 site]
activity [4]: 32.2 % indel

GTCAACTTCAATGTCGGATGG (double strand) [TALEN 103076 site]
activity [5]: 1.5 % indel

TTCCTCAGGTACTCCAAAGAT (double strand) [TALEN 103065 site]
activity [6]: 41.2 % indel

TTTTCCCGATATTCCTCAGGT (double strand) [TALEN 103063 site]
activity [7]: 14.8 % indel

ATGTGTCTGGGTTTCATCCAT (double strand) [TALEN 103079 site]
activity [8]: 42.3 % indel

CTCAGGTACTCCAAAGATTCA (double strand) [TALEN 103067 site]
activity [9]: 49.3 % indel

CTCCATTCTTCAGTAAGTCAA (double strand) [TALEN 103082 site]
activity [10]: 27.5 % indel

GTGTCTTTTCCCGATATTCCT (double strand) [TALEN 103061 site]
activity [11]: 22.9 % indel

ATTCTCTGCTGGATGACGTGA (double strand) [TALEN 103068 site]
activity [12]: 49.3 % indel

CTATGTGTCTGGGTTTCATCC (double strand) [TALEN 103077 site]
activity [13]: 17.1 % indel

CTCCAGGCCAGAAAGAGAGAG (double strand) [TALEN 103052 site]
activity [14]: 63.8 % indel

TTTCATCCATCCGACATTGAA (double strand) [TALEN 103083 site]
activity [15]: 32.2 % indel

ATGACGTGAGTAAACCTGAAT (double strand) [TALEN 103064 site]
activity [16]: 14.8 % indel

CTCTGCTGGATGACGTGAGTA (double strand) [TALEN 103066 site]
activity [17]: 41.2 % indel

CTCCAAAGATTCAGGTTTACT (double strand) [TALEN 103071 site]
activity [18]: 13.3 % indel

GTGAGTAAACCTGAATCTTTG (double strand) [TALEN 103062 site]
activity [19]: 22.9 % indel

CTCACGCTGGATAGCCTCCAG (double strand) [TALEN 103058 site]
activity [20]: 46.2 % indel

ATCCATCCGACATTGAAGTTG (double strand) [TALEN 103085 site]
activity [21]: 3.9 % indel

GTAGCGCGAGCACAGCTAAGG (double strand) [TALEN 103050 site]
activity [22]: 19.5 % indel

TTGACTTTCCATTCTCTGCTG (double strand) [TALEN 103072 site]
activity [23]: 13.3 % indel

ATCCGACATTGAAGTTGACTT (double strand) [TALEN 103087 site]
activity [24]: 10.5 % indel

CTGGATAGCCTCCAGGCCAGA (double strand) [TALEN 103056 site]
activity [25]: 25.1 % indel

ATTCGGGCCGAGATGTCTCGC (double strand) [TALEN 103049 site]
activity [26]: 19.5 % indel

CTCACGTCATCCAGCAGAGAA (double strand) [TALEN 103073 site]
activity [27]: 3 % indel

GTGGCCTTAGCTGTGCTCGCG (double strand) [TALEN 103053 site]
activity [28]: 32.4 % indel

CTTAGCTGTGCTCGCGCTACT (double strand) [TALEN 103055 site]
activity [29]: 25.1 % indel

CTGTGCTCGCGCTACTCTCTC (double strand) [TALEN 103057 site]
activity [30]: 46.2 % indel

GTACTCCAAAGATTCAGGTTT (double strand) [TALEN 103069 site]
activity [31]: 27.9 % indel

CTCCTGAAAGTGGCCGGGTTTAATCTGC (double strand) [TCRA 55254 site]
activity [32]: 66 % indel

ATAGCAATTCAGGAAATTTGA (double strand) [TALEN 103074 site]
activity [33]: 3 % indel

TTCCTGAATTGCTATGTGTCT (double strand) [TALEN 103075 site]
activity [34]: 1.5 % indel

CTCCGTGGCCTTAGCTGTGCT (double strand) [TALEN 103051 site]
activity [35]: 63.8 % indel

TTCAATTCTCTCTCCATTCTT (double strand) [TALEN 103086 site]
activity [36]: 3.9 % indel
